Measured values published in IntAct's records for PubMed 19966221.

B1: mRNA-decapping enzyme 1A (Homo sapiens), Q9NPI6 (parent)
chain: MEALSRAGQEMSLAALKQHDPYITSIADLTGQVALYTFCPKANQWEKTDIEGTLFVYRRSASPYHGFTIVNRLNMHNLVEPVNKDLEFQLHEPFLLYRNASLSIYSIWFYDKNDCHRIAKLMADVVEEETRRSQQAARDKQSPSQANGCSDHRPIDILEMLSRAKDEYERNQMGDSNISSPGLQPSTQLSNLGSTETLEEMPSGSQDKSAPSGHKHLTVEELFGTSLPKEQPAVVGLDSEEMERLPGDASQKEPNSFLPFPFEQLGGAPQSETLGVPSAAHHSVQPEITTPVLITPASITQSNEKHAPTYTIPLSPVLSPTLPAEAPTAQVPPSLPRNSTMMQAVKTTPRQRSPLLNQPVPELSHASLIANQSPFRAPLNVTNTAGTSLPSVDLLQKLRLTPQHDQIQTQPLGKGAMVASFSPAAGQLATPESFIEPPSKTAAARVAASASLSNMVLAPLQSMQQNQDPEVFVQPKVLSSAIPVAGAPLVTATTTAVSSVLLAPSVFQQTVTRSSDLERKASSPSPLTIGTPESQRKPSIILSKSQLQDTLIHLIKNDSSFLSTLHEVYLQVLTKNKDNHNL
partner: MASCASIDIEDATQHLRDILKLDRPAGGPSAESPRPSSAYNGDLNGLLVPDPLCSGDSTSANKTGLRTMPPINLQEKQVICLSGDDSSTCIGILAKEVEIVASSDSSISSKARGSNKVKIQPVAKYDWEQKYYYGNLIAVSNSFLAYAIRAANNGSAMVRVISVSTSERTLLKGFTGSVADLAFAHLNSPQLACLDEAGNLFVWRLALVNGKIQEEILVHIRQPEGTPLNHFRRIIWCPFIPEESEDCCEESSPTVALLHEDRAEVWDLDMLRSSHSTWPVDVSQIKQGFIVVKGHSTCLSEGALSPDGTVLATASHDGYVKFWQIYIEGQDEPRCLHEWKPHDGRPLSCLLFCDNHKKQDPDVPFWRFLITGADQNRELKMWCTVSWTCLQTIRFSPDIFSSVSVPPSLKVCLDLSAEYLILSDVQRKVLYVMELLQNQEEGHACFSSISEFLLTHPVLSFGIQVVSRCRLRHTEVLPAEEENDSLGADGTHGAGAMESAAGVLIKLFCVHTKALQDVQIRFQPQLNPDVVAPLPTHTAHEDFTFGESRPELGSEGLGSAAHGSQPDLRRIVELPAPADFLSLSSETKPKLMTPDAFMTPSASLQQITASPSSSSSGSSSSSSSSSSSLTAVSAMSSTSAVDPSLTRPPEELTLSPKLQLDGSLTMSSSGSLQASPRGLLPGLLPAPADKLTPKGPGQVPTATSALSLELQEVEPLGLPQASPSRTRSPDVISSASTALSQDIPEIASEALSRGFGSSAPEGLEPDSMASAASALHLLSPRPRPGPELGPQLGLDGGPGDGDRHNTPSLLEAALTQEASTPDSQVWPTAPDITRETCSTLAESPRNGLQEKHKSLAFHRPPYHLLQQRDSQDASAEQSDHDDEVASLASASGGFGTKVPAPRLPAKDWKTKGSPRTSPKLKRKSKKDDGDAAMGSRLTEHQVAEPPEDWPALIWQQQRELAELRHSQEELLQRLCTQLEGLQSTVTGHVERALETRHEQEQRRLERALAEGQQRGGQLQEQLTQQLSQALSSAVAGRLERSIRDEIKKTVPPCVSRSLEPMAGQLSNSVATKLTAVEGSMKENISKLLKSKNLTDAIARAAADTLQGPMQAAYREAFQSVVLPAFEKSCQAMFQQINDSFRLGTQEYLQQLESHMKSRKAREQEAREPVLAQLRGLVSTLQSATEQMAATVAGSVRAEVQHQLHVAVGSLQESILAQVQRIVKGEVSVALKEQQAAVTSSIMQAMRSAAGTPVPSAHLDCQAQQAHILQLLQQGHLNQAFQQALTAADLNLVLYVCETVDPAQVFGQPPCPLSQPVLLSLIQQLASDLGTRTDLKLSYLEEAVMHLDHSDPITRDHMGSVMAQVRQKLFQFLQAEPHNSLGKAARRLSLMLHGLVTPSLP
B2: mRNA-decapping enzyme 1A (Homo sapiens), Q9NPI6 (parent)
chain: B1 chain

Variants of: B1
Conditions: with edc4_human EDC4, Q6P2E9

Effect of a mutation on the interaction, disrupting interaction:
MEALSRAGQEMSLAALKQHDPYITSIADLTGQVALYTFCPKANQWEKTDIEGTLFVYRRSASPYHGFTIVNRLNMHNLVEPVNKDLEFQLHEPFLLYRNASLSIYSIWFYDKNDCHRIAKLMADVVEEETRRSQQAARDKQSPSQANGCSDHRPIDILEMLSRAKDEYERNQMGDSNISSPGLQPSTQLSNLGSTETLEEMPSGSQDKSAPSGHKHLTVEELFGTSLPKEQPAVVGLDSEEMERLPGDASQKEPNSFLPFPFEQLGGAPQSETLGVPSAAHHSVQPEITTPVLITPASITQSNEKHAPTYTIPLSPVLSPTLPAEAPTAQVPPSLPRNSTMMQAVKTTPRQRSPLLNQPVPELSHASLIANQSPFRAPLNVTNTAGTSLPSVDLLQKLRLTPQHDQIQTQPLGKGAMVASFSPAAGQLATPESFIEPPSKTAAARVAASASLSNMVLAPLQSMQQNQDPEVFVQPKVLSSAIPVAGAPLVTATTTAVSSVLLAPSVFQQTVTRSSDLERKASSPSPLTIGTPESQRKPSIILSKSQLQDTRIHLSKNDSSRLSTSHEVYLQVLTKNKDNHNL [L551R;I555S;F561R;L565S]
MEALSRAGQEMSLAALKQHDPYITSIADLTGQVALYTFCPKANQWEKTDIEGTLFVYRRSASPYHGFTIVNRLNMHNLVEPVNKDLEFQLHEPFLLYRNASLSIYSIWFYDKNDCHRIAKLMADVVEEETRRSQQAARDKQSPSQANGCSDHRPIDILEMLSRAKDEYERNQMGDSNISSPGLQPSTQLSNLGSTETLEEMPSGSQDKSAPSGHKHLTVEELFGTSLPKEQPAVVGLDSEEMERLPGDASQKEPNSFLPFPFEQLGGAPQSETLGVPSAAHHSVQPEITTPVLITPASITQSNEKHAPTYTIPLSPVLSPTLPAEAPTAQVPPSLPRNSTMMQAVKTTPRQRSPLLNQPVPELSHASLIANQSPFRAPLNVTNTAGTSLPSVDLLQKLRLTPQHDQIQTQPLGKGAMVASFSPAAGQLATPESFIEPPSKTAAARVAASASLSNMVLAPLQSMQQNQDPEVFVQPKVLSSAIPVAGAPLVTATTTAVSSVLLAPSVFQQTVTRSSDLERKASSPSPLTIGTPESQRKPSIILSKSQLQDTLSHLRKNDSSFESTLHEVYLQVLTKNKDNHNL [I552S;I555R;L562E]
MEALSRAGQEMSLAALKQHDPYITSIADLTGQVALYTFCPKANQWEKTDIEGTLFVYRRSASPYHGFTIVNRLNMHNLVEPVNKDLEFQLHEPFLLYRNASLSIYSIWFYDKNDCHRIAKLMADVVEEETRRSQQAARDKQSPSQANGCSDHRPIDILEMLSRAKDEYERNQMGDSNISSPGLQPSTQLSNLGSTETLEEMPSGSQDKSAPSGHKHLTVEELFGTSLPKEQPAVVGLDSEEMERLPGDASQKEPNSFLPFPFEQLGGAPQSETLGVPSAAHHSVQPEITTPVLITPASITQSNEKHAPTYTIPLSPVLSPTLPAEAPTAQVPPSLPRNSTMMQAVKTTPRQRSPLLNQPVPELSHASLIANQSPFRAPLNVTNTAGTSLPSVDLLQKLRLTPQHDQIQTQPLGKGAMVASFSPAAGQLATPESFIEPPSKTAAARVAASASLSNMVLAPLQSMQQNQDPEVFVQPKVLSSAIPVAGAPLVTATTTAVSSVLLAPSVFQQTVTRSSDLERKASSPSPLTIGTPESQRKPSIILSKSQLQDTLIHSIKNDSSRLSTSHEVYLQVLTKNKDNHNL [L554S;F561R;L565S]

Variants of: B2
Conditions: with dcp2_human DCP2, Q8IU60

Effect of a mutation on the interaction, disrupting interaction:
MEALSRAGQEMSLAALKQHDPYITSIADLTGQVALYTFCPKANQWEKTDIEGTLFVYRRSASPYHGFTIVNRLNMHNLVEPVNKDLEFQLHEPFLLYRNASLSIYSIWFYDKNDCHRIAKLMADVVEEETRRSQQAARDKQSPSQANGCSDHRPIDILEMLSRAKDEYERNQMGDSNISSPGLQPSTQLSNLGSTETLEEMPSGSQDKSAPSGHKHLTVEELFGTSLPKEQPAVVGLDSEEMERLPGDASQKEPNSFLPFPFEQLGGAPQSETLGVPSAAHHSVQPEITTPVLITPASITQSNEKHAPTYTIPLSPVLSPTLPAEAPTAQVPPSLPRNSTMMQAVKTTPRQRSPLLNQPVPELSHASLIANQSPFRAPLNVTNTAGTSLPSVDLLQKLRLTPQHDQIQTQPLGKGAMVASFSPAAGQLATPESFIEPPSKTAAARVAASASLSNMVLAPLQSMQQNQDPEVFVQPKVLSSAIPVAGAPLVTATTTAVSSVLLAPSVFQQTVTRSSDLERKASSPSPLTIGTPESQRKPSIILSKSQLQDTRIHLSKNDSSRLSTSHEVYLQVLTKNKDNHNL [L551R;I555S;F561R;L565S]
MEALSRAGQEMSLAALKQHDPYITSIADLTGQVALYTFCPKANQWEKTDIEGTLFVYRRSASPYHGFTIVNRLNMHNLVEPVNKDLEFQLHEPFLLYRNASLSIYSIWFYDKNDCHRIAKLMADVVEEETRRSQQAARDKQSPSQANGCSDHRPIDILEMLSRAKDEYERNQMGDSNISSPGLQPSTQLSNLGSTETLEEMPSGSQDKSAPSGHKHLTVEELFGTSLPKEQPAVVGLDSEEMERLPGDASQKEPNSFLPFPFEQLGGAPQSETLGVPSAAHHSVQPEITTPVLITPASITQSNEKHAPTYTIPLSPVLSPTLPAEAPTAQVPPSLPRNSTMMQAVKTTPRQRSPLLNQPVPELSHASLIANQSPFRAPLNVTNTAGTSLPSVDLLQKLRLTPQHDQIQTQPLGKGAMVASFSPAAGQLATPESFIEPPSKTAAARVAASASLSNMVLAPLQSMQQNQDPEVFVQPKVLSSAIPVAGAPLVTATTTAVSSVLLAPSVFQQTVTRSSDLERKASSPSPLTIGTPESQRKPSIILSKSQLQDTLSHLRKNDSSFESTLHEVYLQVLTKNKDNHNL [I552S;I555R;L562E]
MEALSRAGQEMSLAALKQHDPYITSIADLTGQVALYTFCPKANQWEKTDIEGTLFVYRRSASPYHGFTIVNRLNMHNLVEPVNKDLEFQLHEPFLLYRNASLSIYSIWFYDKNDCHRIAKLMADVVEEETRRSQQAARDKQSPSQANGCSDHRPIDILEMLSRAKDEYERNQMGDSNISSPGLQPSTQLSNLGSTETLEEMPSGSQDKSAPSGHKHLTVEELFGTSLPKEQPAVVGLDSEEMERLPGDASQKEPNSFLPFPFEQLGGAPQSETLGVPSAAHHSVQPEITTPVLITPASITQSNEKHAPTYTIPLSPVLSPTLPAEAPTAQVPPSLPRNSTMMQAVKTTPRQRSPLLNQPVPELSHASLIANQSPFRAPLNVTNTAGTSLPSVDLLQKLRLTPQHDQIQTQPLGKGAMVASFSPAAGQLATPESFIEPPSKTAAARVAASASLSNMVLAPLQSMQQNQDPEVFVQPKVLSSAIPVAGAPLVTATTTAVSSVLLAPSVFQQTVTRSSDLERKASSPSPLTIGTPESQRKPSIILSKSQLQDTLIHSIKNDSSRLSTSHEVYLQVLTKNKDNHNL [L554S;F561R;L565S]
